Results: US20230192824A1 (UNITED STATES OF AMERICA AS REPRESENTED BY THE SECRETARY OF …, published 2023)
Where a chain is given by its changes, count along the chain named.

T1: CfaE, tip adhesin of CFA/I fimbriae on wild type ETEC strain H10407 (Escherichia coli (ETEC) strain H10407, UniProt P25734 23-360)
T1 sequence: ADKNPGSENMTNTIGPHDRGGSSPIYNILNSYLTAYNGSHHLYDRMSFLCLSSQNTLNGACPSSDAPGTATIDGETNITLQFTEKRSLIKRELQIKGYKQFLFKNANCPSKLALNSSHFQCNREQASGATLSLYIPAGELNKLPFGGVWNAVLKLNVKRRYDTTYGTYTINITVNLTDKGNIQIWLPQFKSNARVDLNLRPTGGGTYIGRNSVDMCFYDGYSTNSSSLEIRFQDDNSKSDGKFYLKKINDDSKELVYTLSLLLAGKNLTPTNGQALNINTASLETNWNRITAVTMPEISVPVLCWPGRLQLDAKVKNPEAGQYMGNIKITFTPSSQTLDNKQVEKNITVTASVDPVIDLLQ

T2: CsbD, tip adhesin of CS17 fimbriae on wild type ETEC strain WS6788A (Escherichia coli (ETEC) strain WS6788A)
T2 chain: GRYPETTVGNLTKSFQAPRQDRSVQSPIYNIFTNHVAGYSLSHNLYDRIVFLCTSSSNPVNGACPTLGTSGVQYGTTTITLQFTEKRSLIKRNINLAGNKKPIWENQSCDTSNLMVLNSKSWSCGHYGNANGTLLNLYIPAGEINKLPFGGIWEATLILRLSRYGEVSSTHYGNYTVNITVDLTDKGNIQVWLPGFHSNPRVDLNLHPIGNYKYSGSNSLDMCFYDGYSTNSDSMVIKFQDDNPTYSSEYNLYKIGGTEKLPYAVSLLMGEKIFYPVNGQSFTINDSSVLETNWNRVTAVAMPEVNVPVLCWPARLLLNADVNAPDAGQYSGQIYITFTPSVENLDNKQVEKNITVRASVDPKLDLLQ

T3: CsbD L85I/H144A, tip adhesin of CS17 fimbriae on wild type ETEC strain LSN02-013966/A (Escherichia coli (ETEC) strain …)
T3 chain: T2 chain with L67I, H126A

T4: CsbD L85I, tip adhesin of CS17 fimbriae on wild type ETEC strain WS4240A (Escherichia coli (ETEC) strain WS4240A)
T4 chain: T2 chain with L67I

T5: CotD, tip adhesin of CS2 fimbriae on wild type ETEC strain C91f (Escherichia coli (ETEC) strain C91f)
T5 chain: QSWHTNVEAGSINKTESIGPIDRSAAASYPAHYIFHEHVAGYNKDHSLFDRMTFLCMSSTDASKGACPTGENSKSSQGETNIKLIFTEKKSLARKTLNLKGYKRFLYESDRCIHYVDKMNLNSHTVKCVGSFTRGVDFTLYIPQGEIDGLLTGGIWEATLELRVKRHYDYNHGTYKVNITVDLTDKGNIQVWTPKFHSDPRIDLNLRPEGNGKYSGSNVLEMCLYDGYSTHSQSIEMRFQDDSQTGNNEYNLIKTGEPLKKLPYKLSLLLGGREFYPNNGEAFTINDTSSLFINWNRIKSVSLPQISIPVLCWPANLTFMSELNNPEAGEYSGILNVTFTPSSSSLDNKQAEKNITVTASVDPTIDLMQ

T6: dsc19CfaE6xhis (H10407), donor strand complemented recombinant CFA/I fimbrial tip adhesin CfaE (Escherichia coli (ETEC) strain H10407, UniProt P25734 23-360)
T6 construct: also called dscCfaE; primary CfaE
T6 sequence: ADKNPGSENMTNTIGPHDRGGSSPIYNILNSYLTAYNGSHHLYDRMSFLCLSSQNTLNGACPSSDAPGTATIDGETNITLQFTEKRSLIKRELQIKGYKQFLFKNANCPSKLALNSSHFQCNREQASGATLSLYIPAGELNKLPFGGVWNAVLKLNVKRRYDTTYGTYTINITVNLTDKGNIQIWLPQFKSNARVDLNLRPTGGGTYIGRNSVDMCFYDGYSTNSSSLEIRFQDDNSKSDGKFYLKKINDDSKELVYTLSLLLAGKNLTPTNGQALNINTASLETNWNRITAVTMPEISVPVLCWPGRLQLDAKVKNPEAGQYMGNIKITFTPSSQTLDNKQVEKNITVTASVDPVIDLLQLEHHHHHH

T7: dsc19CsbD6xhis (WS6788A), donor strand complemented recombinant CS17 fimbrial tip adhesin CsbD (Escherichia coli (ETEC) strain WS6788A)
T7 construct: also called dscCsbD; primary CsbD
T7 chain: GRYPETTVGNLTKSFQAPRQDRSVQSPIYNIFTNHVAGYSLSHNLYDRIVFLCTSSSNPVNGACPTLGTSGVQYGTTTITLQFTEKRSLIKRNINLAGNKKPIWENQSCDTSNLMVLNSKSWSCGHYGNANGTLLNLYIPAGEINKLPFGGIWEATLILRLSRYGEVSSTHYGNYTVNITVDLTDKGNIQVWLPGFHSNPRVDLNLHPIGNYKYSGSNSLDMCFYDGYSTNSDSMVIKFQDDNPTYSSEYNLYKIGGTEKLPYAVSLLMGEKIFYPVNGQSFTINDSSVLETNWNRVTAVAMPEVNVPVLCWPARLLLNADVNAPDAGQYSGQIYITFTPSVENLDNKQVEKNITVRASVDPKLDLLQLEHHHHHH

T8: dsc19CotD6xhis (C91f), donor strand complemented recombinant CS2 fimbrial tip adhesin CotD (Escherichia coli (ETEC) strain C91f)
T8 construct: also called dscCotD; CS2 adhesin
T8 chain: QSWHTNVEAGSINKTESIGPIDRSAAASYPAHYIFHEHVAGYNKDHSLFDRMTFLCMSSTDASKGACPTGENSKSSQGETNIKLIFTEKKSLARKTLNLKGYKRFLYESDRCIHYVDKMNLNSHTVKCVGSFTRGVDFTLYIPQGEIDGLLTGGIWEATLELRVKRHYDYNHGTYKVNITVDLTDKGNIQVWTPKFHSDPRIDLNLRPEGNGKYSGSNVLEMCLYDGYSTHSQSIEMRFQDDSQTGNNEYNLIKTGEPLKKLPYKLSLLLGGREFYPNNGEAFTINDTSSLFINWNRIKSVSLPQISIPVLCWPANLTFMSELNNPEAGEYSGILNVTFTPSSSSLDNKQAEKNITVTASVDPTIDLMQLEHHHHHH

B1: anti-CfaE mouse mAb P8D10 (antibody, V domains shown)
VH: QIQLVQSGPELKKPGETVKISCKASGYTFTNYGMNWVKQAPGKGLKWMGWINTYTGQSTYADDFKGRFAFSLETSASTAHLQISNLKNEDAATYFCARMEYGNYENALDYWGQGTSVTVSS
VL: DIVMTQSHKFMSTSIGDRVSITCKASQDVSTAVVWYQQKPGHSPKLLIYSASYRYTGVPDRFTGSGSGTDFTFTISSVQAEDLAVYYCLQHFSTPRTFGGGTNLEIK
notes: also called full length P8D10 mAb
B2: anti-CsbD mouse mAb P7C2 (antibody, V domains shown)
VH: EVKLEESGGGLVQPGGSMKLSCAASGFTFSDAWMDWVRQSPEKGLEWVGKIRSEINDHATYYAESVKGRFTISRDDSKSGVYLQMNNLRAEDTGIYYCARDGYYGAMDYWGQGTSVTVSS
VL: DVQITQSPSYLAASPGETITINCRSNKSISRYLAWYQEKPGKTNKLLIYSGSTLQSGIPSRFSGSGSNTDFTLTISSLEPEDFAMYYCQQHNEYPYTFGSGTKLEIK
B3: anti-CfaE mouse mAb P5C7 (antibody, V domains shown)
VH: B1 VH with Q57E, S58P, A61T, H80Y, S84N, N85S, N88T, A91T, L108M, Y110S
VL: B1 VL with I2T, I15V, H42Q, S93N, T94I, N103K
B4: anti-CsbD mouse mAb P9A5 (antibody, V domains shown)
VH: EVQLQQFGAEVVKPGASVKISCKASGYTFTDYNIDWVKQSHGESLEWIGDISPNSEGTTYNQKFKGQATLTIDKSSTTAYMELRSLTSEDSAVYYCARGSGIWNGLDYWGQGTSVTVSS
VL: DIVMTQSHKFMSTSVGDRVSITCKASQDVSTAVAWYQQKPGQSPQLLIYSSSYRYVGVPDRFTGSGSGTDFTFTISSVQAEDLAVYYCHQHYSLPYTFGGGTKLEIK
notes: Isotype n.d
B5: anti-CotD mouse mAb P6B8 (antibody, V domains shown)
VH: QVTLKESGPGILQPSQTLSLTCSFSGFSLSTSGMGVGWIRQPSGKGLEWLSHIWWDDEKRYNPALKSRLTISKDTSSNQVFLKIASVDTADTATYYCARIGDRSGHAGFVYWGQGTLVTVSA
VL: DIKMTQSPSSMYASLGERVTITCKASQDINSYLSWFQQKPGKSPKTLIYRANRLVDGVPSRFSGSGSGQDYSLTISSLEYEDMGTYYCLQYDEFPYTFGGGTKLEIK

target: T1, CfaE, tip adhesin of CFA/I fimbriae on …; experiment: cell-based or functional assay

Row | Binder | fold reduction of ETEC H10407 binding to Caco-2 cells
1 | B1 | > 4 fold

target: T1, CfaE, tip adhesin of CFA/I fimbriae on …; experiment: cell-based or functional assay; remark: another data set of the same source

Row | Binder | MIC in HAI
2 | B2 | > 250 µg/mL
3 | B1 | 1.2 µg/mL
4 | B3 | 1.2 µg/mL
5 | B4 | > 250 µg/mL
6 | B5 | > 250 µg/mL

target: CsfD, tip adhesin of CS4 fimbriae on wild type ETEC strain BANG10-SP (Escherichia coli (ETEC) strain BANG10-SP); experiment: cell-based or functional assay

Row | Binder | MIC in HAI
7 | B2 | > 250 µg/mL
8 | B1 | > 250 µg/mL
9 | B3 | > 250 µg/mL
10 | B4 | > 250 µg/mL
11 | B5 | > 250 µg/mL

target: CsuD, tip adhesin of CS14 fimbriae on wild type ETEC strain WS3294A (Escherichia coli (ETEC) strain WS3294A); experiment: cell-based or functional assay

Row | Binder | MIC in HAI
12 | B2 | > 250 µg/mL
13 | B1 | > 250 µg/mL
14 | B3 | > 250 µg/mL
15 | B4 | > 250 µg/mL
16 | B5 | > 250 µg/mL

Target: T2, CsbD, tip adhesin of CS17 fimbriae on …
Experiment: cell-based or functional assay

Row | Binder | MIC in HAI
17 | B2 | 1 µg/mL
18 | B1 | > 250 µg/mL
19 | B3 | 16 µg/mL
20 | B4 | 4 µg/mL
21 | B5 | > 250 µg/mL

Target: T3, CsbD L85I/H144A, tip adhesin of CS17 …
Experiment: cell-based or functional assay

Row | Binder | MIC in HAI
22 | B2 | 1 µg/mL
23 | B1 | > 250 µg/mL
24 | B3 | > 250 µg/mL
25 | B4 | 3.9 µg/mL
26 | B5 | > 250 µg/mL

Target: T4, CsbD L85I, tip adhesin of CS17 fimbriae …
Experiment: cell-based or functional assay

Row | Binder | MIC in HAI
27 | B2 | 2 µg/mL
28 | B3 | > 250 µg/mL

target: CooD, tip adhesin of CS1 fimbriae on wild type ETEC strain WS1974A (Escherichia coli (ETEC) strain WS1974A); experiment: cell-based or functional assay

Row | Binder | MIC in HAI
29 | B2 | 4 µg/mL
30 | B1 | > 250 µg/mL
31 | B3 | > 250 µg/mL
32 | B4 | 4 µg/mL
33 | B5 | > 250 µg/mL

Target: T5, CotD, tip adhesin of CS2 fimbriae on …
Experiment: cell-based or functional assay

Row | Binder | MIC in HAI
34 | B2 | > 250 µg/mL
35 | B1 | > 250 µg/mL
36 | B3 | > 250 µg/mL
37 | B4 | > 250 µg/mL
38 | B5 | 3 µg/mL

target: T6, dsc19CfaE6xhis (H10407), donor strand …; experiment: ELISA on coated adhesin

Row | Binder | binding result
39 | B2 | no binding (tested: mAb 2 ug/ml)
40 | B4 | no binding (tested: mAb 2 ug/ml)
41 | B5 | no binding (tested: mAb 2 ug/ml)

Target: T7, dsc19CsbD6xhis (WS6788A), donor strand …
Experiment: ELISA on coated adhesin

Row | Binder | binding result
42 | B1 | no binding (tested: mAb 2 ug/ml)
43 | B5 | no binding (tested: mAb 2 ug/ml)

Target: T8, dsc19CotD6xhis (C91f), donor strand …
Experiment: ELISA on coated adhesin

Row | Binder | binding result
44 | B2 | no binding (tested: mAb 2 ug/ml)
45 | B1 | no binding (tested: mAb 2 ug/ml)
46 | B3 | no binding (tested: mAb 2 ug/ml)
47 | B4 | no binding (tested: mAb 2 ug/ml)
